{"source": "paper PMC5473137", "about": "“Structure of a SMG8–SMG9 complex identifies a G-domain heterodimer in the NMD effector proteins” (RNA, 2017)", "binders": {"B1": {"name": "C. elegans SMG9c (SMG9 residues 59-375) (domain or fragment, UniProt Q9XWJ1 59-375, looked up)", "chain": "MKESVRFLTDFGEISDAISDLLTSSPNFNVISAIGPQGAGKSTLLSMLAGNNSRQMYREYVFRPVSREANEQSRHQTIQIDIYIVNHQIFLDCQPMYSFSIMEGLPKVRGGRFDDSTAMSDTLRLTAFLLYVSHTVLVVSETHYDKVIIDTLRVAEQIRPYLAIFRPKLAIDRKTNLVFIKTKASSIDLAPTVIREREELLRLSFQDSRWLKVSQEPFKTLIVLEEIRVRREHLFEEGDEPDEAASLNEFDEQIAELREELQKNREDFTVETAAMDEKKWLDMCREVIRDKTLHKTLKEYQRAMTDGVRTHFDNGFH", "notes": "SMG9, C. elegans, full length 385 residues; core fragment residues 59-375 (G domain); Selenomethionine-substituted protein (about 60% incorporation) was used for phasing; native crystals were soaked with GDP; also called C.e; SMG9 59-375; CeSMG9c"}}, "biological_target": "T1, C. elegans SMG8c (SMG8 residues 1-423) (C. elegans, UniProt O62301 1-423)", "T1 construct": "SMG8, C. elegans, full length 873 residues; core fragment residues 1-423 (G-like domain and stalk); Selenomethionine-substituted protein (about 60% incorporation) was used for phasing; native crystals were soaked with GDP; SMG8 was insoluble when expressed in isolation; also called C.e; SMG8 1-423; CeSMG8", "T1 sequence (looked up)": "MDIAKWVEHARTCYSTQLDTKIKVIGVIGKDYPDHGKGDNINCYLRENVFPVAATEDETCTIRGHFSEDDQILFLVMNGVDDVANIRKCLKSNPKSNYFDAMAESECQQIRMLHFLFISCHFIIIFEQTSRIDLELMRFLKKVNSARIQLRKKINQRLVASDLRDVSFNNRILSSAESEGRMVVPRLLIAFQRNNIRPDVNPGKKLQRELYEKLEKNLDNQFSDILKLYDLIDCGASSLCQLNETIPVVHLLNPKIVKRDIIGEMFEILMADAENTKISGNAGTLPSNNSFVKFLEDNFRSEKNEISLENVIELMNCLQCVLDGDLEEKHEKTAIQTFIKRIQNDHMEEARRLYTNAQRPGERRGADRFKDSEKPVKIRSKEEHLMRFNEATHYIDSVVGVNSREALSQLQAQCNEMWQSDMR", "test": "crystal structure; coexpressed and co-purified SMG8c-SMG9c core complex; vapor diffusion, 10% PEG3350, 0.1M Tris pH 8.5, 0.11 mM YCl3; SeMet crystals (2.5 Å) and native crystals soaked with 10 mM GDP (2.65 Å); three copies of the complex in the asymmetric unit", "conditions": "both partners purified"}
{"binder": "B1", "values": [{"measurement": "binding result", "value": "binds"}]}
